Values joined by “and” are separate entries in the source; they are usually repeats but may differ in a detail not shown here. Identical values can stand only once. Like-named read-outs stand apart in the source and are kept apart here.
T1: FLAG tag antigen
T1 chain: DYKDDDDK


Tests used:
FLAG-BAP [1] = target: T2, FLAG-BAP (FLAG tag fused to bacterial alkaline phosphatase); test: SPR
FLAG tag antigen [2] = target: T1, FLAG tag antigen; test: SPR
FLAG-BAP [3] = target: T2, FLAG-BAP; test: SPR; remark: listed apart in the source
FLAG tag antigen [4] = target: T1, FLAG tag antigen; test: SPR bivalent

Kd (FLAG-BAP [1]) | Kd (FLAG-BAP [3]) | Binder | further results
 | 13.3 nM and 17 nM | BEAT 2a4 FLAG arm (antibody) DVVMTQSPDSLAVSLGERATINCKSSQSIVHRNGNTYLEWYQQKPGQPPKLLIYKVSNRFSGVPDRFSGSGSGTDFTLTISSLQAEDVAVYYCFQGSHVPYTFGGGTKLEIKGGGGSGGGGSGGGGSQVQLVQSGAEVKKPGASVKVSCKASGYSFTTYTIHWVRQAPGQGLEWIGYINPSSGYAAYNQKFQGRVTLTADKSTSTAYMELSSLRSEDTAVYYCAREKFYGYDYWGQGTTVTVSS | 
 | 5.13 nM and 2.63 nM and 3.04 nM | BEAT 2a3 FLAG arm (antibody) DVVMTQSPDSLAVSLGERATINCKSSQSIVHRNGNTYLEWYQQKPGQPPKLLIYKVSNRFSGVPDRFSGSGSGTDFTLTISSLQAEDVAVYYCFQGSHVPYTFGGGTKLEIKGGGGSGGGGSGGGGSQVQLVQSGAEVKKPGASVKVSCKASGYSFTTYTIHWVRQAPGQGLEWIGYINPSSGYAAYNQKFQGRVTLTADKSTSTAYMELSSLRSEDTAVYYCAREKFYGYDYWGQGTTVTVSS | 
 | 51.9 nM and 21.7 nM | BEAT 2a2 FLAG arm (antibody) DVVMTQSPDSLAVSLGERATINCKSSQSIVHRNGNTYLEWYQQKPGQPPKLLIYKVSNRFSGVPDRFSGSGSGTDFTLTISSLQAEDVAVYYCFQGSHVPYTFGGGTKLEIKGGGGSGGGGSGGGGSQVQLVQSGAEVKKPGASVKVSCKASGYSFTTYTIHWVRQAPGQGLEWIGYINPSSGYAAYNQKFQGRVTLTADKSTSTAYMELSSLRSEDTAVYYCAREKFYGYDYWGQGTTVTVSS | 
 | 6.59 nM and 9.46 nM | BEAT 2a7 FLAG arm (antibody) QVQLVQSGAEVKKPGASVKVSCKASGYSFTTYTIHWVRQAPGQGLEWIGYINPSSGYAAYNQKFQGRVTLTADKSTSTAYMELSSLRSEDTAVYYCAREKFYGYDYWGQGTTVTVSSGGGGSGGGGSGGGGSGGGGASDVVMTQSPDSLAVSLGERATINCKSSQSIVHRNGNTYLEWYQQKPGQPPKLLIYKVSNRFSGVPDRFSGSGSGTDFTLTISSLQAEDVAVYYCFQGSHVPYTFGGGTKLEIK | 
10.9 nM and 13.5 nM and 7.81 nM |  | BEAT 1a7 FLAG arm (antibody) QVQLVQSGAEVKKPGASVKVSCKASGYSFTTYTIHWVRQAPGQGLEWIGYINPSSGYAAYNQKFQGRVTLTADKSTSTAYMELSSLRSEDTAVYYCAREKFYGYDYWGQGTTVTVSSGGGGSGGGGSGGGGSGGGGASDVVMTQSPDSLAVSLGERATINCKSSQSIVHRNGNTYLEWYQQKPGQPPKLLIYKVSNRFSGVPDRFSGSGSGTDFTLTISSLQAEDVAVYYCFQGSHVPYTFGGGTKLEIK | 
 | 35.1 nM and 32.6 nM | BEAT 2a6 FLAG arm (antibody) QVQLVQSGAEVKKPGASVKVSCKASGYSFTTYTIHWVRQAPGQGLEWIGYINPSSGYAAYNQKFQGRVTLTADKSTSTAYMELSSLRSEDTAVYYCAREKFYGYDYWGQGTTVTVSSGGGGSGGGGSGGGGSGGGGASDVVMTQSPDSLAVSLGERATINCKSSQSIVHRNGNTYLEWYQQKPGQPPKLLIYKVSNRFSGVPDRFSGSGSGTDFTLTISSLQAEDVAVYYCFQGSHVPYTFGGGTKLEIK | 
15.5 nM and 27.4 nM |  | BEAT 1a6 FLAG arm (antibody) QVQLVQSGAEVKKPGASVKVSCKASGYSFTTYTIHWVRQAPGQGLEWIGYINPSSGYAAYNQKFQGRVTLTADKSTSTAYMELSSLRSEDTAVYYCAREKFYGYDYWGQGTTVTVSSGGGGSGGGGSGGGGSGGGGASDVVMTQSPDSLAVSLGERATINCKSSQSIVHRNGNTYLEWYQQKPGQPPKLLIYKVSNRFSGVPDRFSGSGSGTDFTLTISSLQAEDVAVYYCFQGSHVPYTFGGGTKLEIK | 
21.9 nM and 15.4 nM |  | BEAT 1a5 FLAG arm (antibody) QVQLVQSGAEVKKPGASVKVSCKASGYSFTTYTIHWVRQAPGQGLEWIGYINPSSGYAAYNQKFQGRVTLTADKSTSTAYMELSSLRSEDTAVYYCAREKFYGYDYWGQGTTVTVSSGGGGSGGGGSGGGGSGGGGASDVVMTQSPDSLAVSLGERATINCKSSQSIVHRNGNTYLEWYQQKPGQPPKLLIYKVSNRFSGVPDRFSGSGSGTDFTLTISSLQAEDVAVYYCFQGSHVPYTFGGGTKLEIK | 
10.1 nM and 8.85 nM |  | BEAT 1a8 FLAG arm (antibody) QVQLVQSGAEVKKPGASVKVSCKASGYSFTTYTIHWVRQAPGQGLEWIGYINPSSGYAAYNQKFQGRVTLTADKSTSTAYMELSSLRSEDTAVYYCAREKFYGYDYWGQGTTVTVSSGGGGSGGGGSGGGGSGGGGASDVVMTQSPDSLAVSLGERATINCKSSQSIVHRNGNTYLEWYQQKPGQPPKLLIYKVSNRFSGVPDRFSGSGSGTDFTLTISSLQAEDVAVYYCFQGSHVPYTFGGGTKLEIK | 
 | 10.8 nM and 9.09 nM | BEAT 2a8 FLAG arm (antibody) QVQLVQSGAEVKKPGASVKVSCKASGYSFTTYTIHWVRQAPGQGLEWIGYINPSSGYAAYNQKFQGRVTLTADKSTSTAYMELSSLRSEDTAVYYCAREKFYGYDYWGQGTTVTVSSGGGGSGGGGSGGGGSGGGGASDVVMTQSPDSLAVSLGERATINCKSSQSIVHRNGNTYLEWYQQKPGQPPKLLIYKVSNRFSGVPDRFSGSGSGTDFTLTISSLQAEDVAVYYCFQGSHVPYTFGGGTKLEIK | 
 | 19.5 nM and 18.1 nM | BEAT 2a5 FLAG arm (antibody) QVQLVQSGAEVKKPGASVKVSCKASGYSFTTYTIHWVRQAPGQGLEWIGYINPSSGYAAYNQKFQGRVTLTADKSTSTAYMELSSLRSEDTAVYYCAREKFYGYDYWGQGTTVTVSSGGGGSGGGGSGGGGSGGGGASDVVMTQSPDSLAVSLGERATINCKSSQSIVHRNGNTYLEWYQQKPGQPPKLLIYKVSNRFSGVPDRFSGSGSGTDFTLTISSLQAEDVAVYYCFQGSHVPYTFGGGTKLEIK | 

Further lines, the binder ahead of its results:

Binder | Kd (FLAG-BAP [1]) | Kd (FLAG-BAP [3]) | further results
BEAT 1a1 FLAG arm (antibody) DVVMTQSPDSLAVSLGERATINCKSSQSIVHRNGNTYLEWYQQKPGQPPKLLIYKVSNRFSGVPDRFSGSGSGTDFTLTISSLQAEDVAVYYCFQGSHVPYTFGGGTKLEIKGGGGSGGGGSGGGGSQVQLVQSGAEVKKPGASVKVSCKASGYSFTTYTIHWVRQAPGQGLEWIGYINPSSGYAAYNQKFQGRVTLTADKSTSTAYMELSSLRSEDTAVYYCAREKFYGYDYWGQGTTVTVSS | 0.671 nM and 0.798 nM |  | 
V4 scFv (anti-FLAG) (antibody) DVVMTQSPDSLAVSLGERATINCKSSQSIVHRNGNTYLEWYQQKPGQPPKLLIYKVSNRFSGVPDRFSGSGSGTDFTLTISSLQAEDVAVYYCFQGSHVPYTFGGGTKLEIKGGGGSGGGGSGGGGSQVQLVQSGAEVKKPGASVKVSCKASGYSFTTYTIHWVRQAPGQGLEWIGYINPSSGYAAYNQKFQGRVTLTADKSTSTAYMELSSLRSEDTAVYYCAREKFYGYDYWGQGTTVTVSS |  |  | Kd (FLAG tag antigen [2]): 22 nM
BEAT 1a4 FLAG arm (antibody) DVVMTQSPDSLAVSLGERATINCKSSQSIVHRNGNTYLEWYQQKPGQPPKLLIYKVSNRFSGVPDRFSGSGSGTDFTLTISSLQAEDVAVYYCFQGSHVPYTFGGGTKLEIKGGGGSGGGGSGGGGSQVQLVQSGAEVKKPGASVKVSCKASGYSFTTYTIHWVRQAPGQGLEWIGYINPSSGYAAYNQKFQGRVTLTADKSTSTAYMELSSLRSEDTAVYYCAREKFYGYDYWGQGTTVTVSS | 6.9 nM and 5.04 nM |  | 
V7 scFv (anti-FLAG) (antibody) DVVMTQSPDSLAVSLGERATINCKSSQSIVHRNGNTYLEWYQLKPGQPPKLLIYKVSNRFSGVPDRFSGSGSGTDFTLTISSLQAEDVAVYYCFQGSHVPYTFGGGTKLEIKGGGGSGGGGSGGGGSQVQLVQSGAEVKKPGASVKVSCKASGYSFTTYTMHWVRQAPGQGLEWMGYINPSSGYAAYNQKFQGRVTMTADKSTSTAYMELSSLRSEDTAVYYCAREKFYGYDYWGQGTTVTVSS |  |  | Kd (FLAG tag antigen [2]): 15 nM
BEAT 1a3 FLAG arm (antibody) DVVMTQSPDSLAVSLGERATINCKSSQSIVHRNGNTYLEWYQQKPGQPPKLLIYKVSNRFSGVPDRFSGSGSGTDFTLTISSLQAEDVAVYYCFQGSHVPYTFGGGTKLEIKGGGGSGGGGSGGGGSQVQLVQSGAEVKKPGASVKVSCKASGYSFTTYTIHWVRQAPGQGLEWIGYINPSSGYAAYNQKFQGRVTLTADKSTSTAYMELSSLRSEDTAVYYCAREKFYGYDYWGQGTTVTVSS | 1.22 nM and 1.24 nM and 1.65 nM |  | 
BEAT 1a2 FLAG arm (antibody) DVVMTQSPDSLAVSLGERATINCKSSQSIVHRNGNTYLEWYQQKPGQPPKLLIYKVSNRFSGVPDRFSGSGSGTDFTLTISSLQAEDVAVYYCFQGSHVPYTFGGGTKLEIKGGGGSGGGGSGGGGSQVQLVQSGAEVKKPGASVKVSCKASGYSFTTYTIHWVRQAPGQGLEWIGYINPSSGYAAYNQKFQGRVTLTADKSTSTAYMELSSLRSEDTAVYYCAREKFYGYDYWGQGTTVTVSS | 1.26 nM and 1.99 nM |  | 
Parental anti-FLAG (chimeric) (antibody, V domains shown) VH: QVQLQQSAGELARPGASVKMSCKASGYSFTTYTIHWVKQRPGQGLEWIGYINPSSGYAAYNQNFKDETTLTADKSSSTAYMQLSSLTSEDSAVYYCAREKFYGYDYWGQGTTLTVSS VL: DVLMTQLPLSLPVSLGDQASISCRSSQSIVHRNGNTYLEWYLLKPGQSPKLLIYKVSNRFSGVPDRFSGSGSGTDFTLKISRVEAEDLGVYYCFQGSHVPYTFGGGTKLEIK |  |  | Kd (FLAG tag antigen [4]): 0.96 nM
V4 IgG (Anti-FLAG-M2-V4) (antibody, V domains shown) VH: QVQLVQSGAEVKKPGASVKVSCKASGYSFTTYTIHWVRQAPGQGLEWIGYINPSSGYAAYNQKFQGRVTLTADKSTSTAYMELSSLRSEDTAVYYCAREKFYGYDYWGQGTTVTVSS VL: DVVMTQSPDSLAVSLGERATINCKSSQSIVHRNGNTYLEWYQQKPGQPPKLLIYKVSNRFSGVPDRFSGSGSGTDFTLTISSLQAEDVAVYYCFQGSHVPYTFGGGTKLEIK | 34.3 nM and 20.7 nM | 34.3 nM and 20.7 nM | Kd (FLAG tag antigen [4]): 0.91 nM
V7 IgG (Anti-FLAG-M2-V7) (antibody, V domains shown) VH: QVQLVQSGAEVKKPGASVKVSCKASGYSFTTYTMHWVRQAPGQGLEWMGYINPSSGYAAYNQKFQGRVTMTADKSTSTAYMELSSLRSEDTAVYYCAREKFYGYDYWGQGTTVTVSS VL: DVVMTQSPDSLAVSLGERATINCKSSQSIVHRNGNTYLEWYQLKPGQPPKLLIYKVSNRFSGVPDRFSGSGSGTDFTLTISSLQAEDVAVYYCFQGSHVPYTFGGGTKLEIK | 23.2 nM and 27.7 nM | 27.7 nM and 23.2 nM | Kd (FLAG tag antigen [4]): 1.3 nM
